Assay results from patent publication CN111875700A (CUSABIO BIOTECH CO LTD, dated 2020).

Target: T1, SARS-COV-2病毒N蛋白 (nucleocapsid protein) (SARS-COV-2, UniProt P0DTC9 1-419)
T1 construct: Recombinant N protein; also called 核衣壳蛋白
Assay: ELISA of scFv supernatants on coated N protein, detected with anti-E/HRP

B1: 1A6单链抗体 (1A6 scFv) (scFv)
scFv: EVKLKESGAELVKPGASVKLSCTASGFNIKDTYMHWVKQRPGQGLEWIGYINPSTGYTEYNQKFKDKATLTADKSSSTAYMQLSSLTSEDSAVYYCARDALGWYFDVWGAGTLVTVSTGGGGSGGGGSGGGGSDVVMTQSHKFMSTSVGDRVSVTCKASQNVGTNVAWYQQKPGQFPKALIYSASYRYSGVPDRFTGSGSGTDFTLTISNVQSEDLAEYFCQQYNSYPLTFGAGTKLEIK
notes: also called 1A6 single-chain antibody; not shown: E-tag from vector pCANTAB5E (detected with anti-E/HRP)
Does B1 bind?
Result: binds
